From the nanobody polyreactivity screen of Harvey et al. (2022)

Experiment: yeast display, Sf9 membrane polyspecificity reagent, FACS + sequencing; frameworks hold sequencing errors
Summary of the method: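 Nanobodies from a synthetic yeast display library (Saccharomyces cerevisiae BJ5465), induced 36–48 hours with galactose, were stained 1 hour at 4 °C with 10% biotinylated, detergent-solubilized Sf9 membrane reagent, enriched on streptavidin microbeads, then FACS-sorted. Anti-HA (expression) and streptavidin (reagent binding) fluorescence set low and high (top ~1%) gates. Polyreactivity labels come from the gate of origin. Genes were colony-PCR amplified, MiSeq 2 × 250 sequenced and filtered by CDR length.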
In the case of “QVQLVESGGGLVQAGGSLRLSCAASGSTFVPNAMGWYRQAPGKERELVAAITSGGITNYADSVQGRFTISRDNAKNTVYLQMNSLKPEDTAVYYCAVLYYILAPGYDYWGQGTQVTVSS”, the “polyreactivity (PSR sort gate)” value is reported as “low polyreactivity”.
In the case of “QVQLVESGGGLVQAGGSLRLSCAASGSTFVPNTMGWYRQAPGKDRELVAGITSGGSTYYADSVKGRFTISRDNAKNTVYLQMNSLKPEDTAVYYCAAGKHVTFSYEYRMDYWGQGSQVTVSS”, the “polyreactivity (PSR sort gate)” value is reported as “low polyreactivity”.
In the case of “QVQLVESGGGLVQAGGSLRLSCAASGSTFVPYAMGWYRQAPGKERELVARISRRGGSSTYYADSVKGRFTISRDNAKNTVYLQMNSLKPEDTAVYYCNKGHITFASVSSGPSPGGYWGQGTQVTVSS”, the “polyreactivity (PSR sort gate)” value is reported as “low polyreactivity”.
With “QVQLVESGGGLVQAGGSLRLSCAASGSTFVPYAMGWYRQAPGKERELVASISWRGGSTSYADSVKGRFTISRDNAKNTVYLQMNSLKPEDTAVYYCAKRRYWAPYDYWGQGTQVTVSS” the “polyreactivity (PSR sort gate)” value was “high polyreactivity”.
In the case of “QVQLVESGGGLVQAGGSLRLSCAASGSTFVQNAMGWYRQAPGKERELVAAISKSGGRTYYADSVKGRFTISRDNEKNTVYLQINSLNAEDTAVYYCARPYSRAYDYWGQGTQVTVSS”, the “polyreactivity (PSR sort gate)” value is reported as “high polyreactivity”.
With “QVQLVESGGGLVQAGGSLRLSCAASGSTFVQNAMGWYRQAPGKERELVAAISLRGGSTYYADSVKGRFTISRDNAKNTVYLQMNSLKPEDTAVYYCAADVSQRDGSVRGYDSWGQDTQVTVSS” the “polyreactivity (PSR sort gate)” value was “high polyreactivity”.
With “QVQLVESGGGLVQAGGSLRLSCAASGSTFVRNAMGWYRQAPGKERELVAGISTGDNTYYADSVKGRFTISRDNAKNTVYLQMNSLKPEDSAVYYCAARGLPSNYYYYVHGYIMDYWGQGTQVTVSS” the “polyreactivity (PSR sort gate)” value was “low polyreactivity”.
For “QVQLVESGGGLVQAGGSLRLSCAASGSTFVRNAMGWYRQAPGKERELVARISSSGGRTSYADSVKGRFTISRDNAKNTVYLQMNSLKPEDTAVYYCNARHYYIWWRSPTRTAMNYWGQGTQVTVSS”, the “polyreactivity (PSR sort gate)” value was “high polyreactivity”.
For “QVQLVESGGGLVQAGGSLRLSCAASGSTFVRNDMGWYRQAPGKERELVAAINGDGRTYYADSVKGRFTISRDNAKNTVYLQMNSLKPEDTAVYYCAADWKSSRSYSYEMDYWGQGTQVTVSS”, the “polyreactivity (PSR sort gate)” value was “low polyreactivity”.
For “QVQLVESGGGLVQAGGSLRLSCAASGSTFVRNVMGWYRQAPGKEREFVAAITRSGGSTYYADSVKGRFTISRDNAKNTVYLQMNSLKPEDTAVYYCIVPPGYRLSQYEYDYWGQGTQVTVSS”, the “polyreactivity (PSR sort gate)” value was “low polyreactivity”.
For “QVQLVESGGGLVQAGGSLRLSCAASGSTFVRYAMGWYRQAPGKERELVAAIRWSSGSTYYADSVKGRFTISRDNAKNTVYLQMNSLKPEDTAVYYCAKRQYLYTSKYDYWGQGTQVTVSS”, the “polyreactivity (PSR sort gate)” value was “high polyreactivity”.
For “QVQLVESGGGLVQAGGSLRLSCAASGSTFVRYAMGWYRQAPGKERELVAAISGGGSTSYADSVKGRFTISRDNAKNTVYLQMNSLKPEDTAVYYCAAEKYRWENDAYQYYTFDYWGQGTQVTVSS”, the “polyreactivity (PSR sort gate)” value was “low polyreactivity”.
In the case of “QVQLVESGGGLVQAGGSLRLSCAASGSTFVRYAMGWYRQAPGKERELVAAISKRGGSTYYADSVKGRFTISRDNAKNTVYLQMNSLKPEDTAVYYCAAVPLSSRQYDYWGQGTQVTVSS”, the “polyreactivity (PSR sort gate)” value is reported as “high polyreactivity”.
With “QVQLVESGGGLVQAGGSLRLSCAASGSTFVRYPMGWYRPAPGKERELVAGISRVGNTYYADSVKGRFTISRDNAKNTVYLQMNSLKPEDTAVYYCAARSSRWDGYDYWGQGTQVTVSS” the “polyreactivity (PSR sort gate)” value was “high polyreactivity”.
With “QVQLVESGGGLVQAGGSLRLSCAASGSTFVSNAMGWYRQAPGKEREFVAAISGSGGSTYYADSVKGRFTISRDNAMNTVYLQMNSLKPEVTAVYYCATAGRYGRYRTYPYRSKYDYWGQGTQVTVSS” the “polyreactivity (PSR sort gate)” value was “high polyreactivity”.
For “QVQLVESGGGLVQAGGSLRLSCAASGSTFVSNAMGWYRQAPGKESELVAAISSSGGRTSYADSVKGRFTISRDHANNTVYLQMNSLKPEDTAVYYCNTLVVPYTDFKTSYNVDYWGQGTQVTVSS”, the “polyreactivity (PSR sort gate)” value was “low polyreactivity”.
For “QVQLVESGGGLVQAGGSLRLSCAASGSTFVSYAMGWYRQAPGKERELVAGISWSGTRTYYADSVKGRFTISRDNAKNTVYLQMNSLKPEDTAVYYFNAVYKYNYRTLDYWGQGTQVTVSS”, the “polyreactivity (PSR sort gate)” value was “high polyreactivity”.
For “QVQLVESGGGLVQAGGSLRLSCAASGSTFVSYDMGWYRQAPGKERELVAAIDWSGGNTDYADSVKGRFTISRDNAKNTVYLQMNSLKPEDNAVYYCAVEKFFRAEYDHWGQGTQVTVSS”, the “polyreactivity (PSR sort gate)” value was “low polyreactivity”.
In the case of “QVQLVESGGGLVQAGGSLRLSCAASGSTFVTNDMGWYRQAPGKERELVAAISSGTSTNYADSVKGRFTISRDNAKNTVYLQMNSLKPEDTAVYYCAADSLKRYDYWGQGTQVTVSS”, the “polyreactivity (PSR sort gate)” value is reported as “low polyreactivity”.
For “QVQLVESGGGLVQAGGSLRLSCAASGSTFVTYAMGWYRQAPGKEREFVAAISTTGTGRTYYADSVKGRFTISRDNAKNTVYLQMNSLKPEDTAVYYCAADLYGTYDYWGQGTQVTVSS”, the “polyreactivity (PSR sort gate)” value was “low polyreactivity”.
For “QVQLVESGGGLVQAGGSLRLSCAASGSTFVTYAMGWYRQAPGKERELVASISRGGSTKYADSVKGRFTISRDNAKNTVYLQMNSLKPEDTAVYYCAAKAKNYRLGPFDYWGQGTQVTVSS”, the “polyreactivity (PSR sort gate)” value was “low polyreactivity”.
For “QVQLVESGGGLVQAGGSLRLSCAASGSTFVTYARGWYRQAPGKERELVAAISRRAGRTYYADSVKGRFTISRDNAQNTVSLQMNSLKPEDTAVYYCAKQAYEAFYTGDDYDYWGQGTKVTVSS”, the “polyreactivity (PSR sort gate)” value was “high polyreactivity”.
With “QVQLVESGGGLVQAGGSLRLSCAASGSTFVVNAMGWYRPAQGKERELVAAISRSGTSTYYADSVKGRFTISRDNAKKTVYLQMNSLKPEDSAVYYCNAVGSYYPPDYWGQGTQVTVSS” the “polyreactivity (PSR sort gate)” value was “high polyreactivity”.
For “QVQLVESGGGLVQAGGSLRLSCAASGSTFVVNAMGWYRQAPGKERELVAAIDGSDGSTYYADSVKGRFTISRDNAKNTVYLQMNSLKPEDTAVYYCAAEVLGRPDVENDYWGQGTQVTVSS”, the “polyreactivity (PSR sort gate)” value was “low polyreactivity”.
In the case of “QVQLVESGGGLVQAGGSLRLSCAASGSTFVVNAMGWYRQAPGKERELVAAITQSGGSTFYADSVKGRFTISRDNAKNTVYFQMNSLKPEDTAVYYWGQGTQVTVSS”, the “polyreactivity (PSR sort gate)” value is reported as “low polyreactivity”.
For “QVQLVESGGGLVQAGGSLRLSCAASGSTFVVNAMGWYSQAPGKERELVAAIDGSDGSTYYADSVKGRFTISRDNAKNTVYLQMNSLKPEDTAVYYCAAEVLGRPDVENDYWGQGTHVTVSS”, the “polyreactivity (PSR sort gate)” value was “low polyreactivity”.
For “QVQLVESGGGLVQAGGSLRLSCAASGSTFVWNAMGWYRQAPGKERELVAAITSSGGSTYYADSVKGRFTISRDNAKNTVYLQMNSLKPEDTAVYYCAATGVNYRGLLGVAWGNNYWGQGTQVTVSS”, the “polyreactivity (PSR sort gate)” value was “low polyreactivity”.
In the case of “QVQLVESGGGLVQAGGSLRLSCAASGSTFVWYAMGWYRQAPGKEREFVATISWSDGSTYYADSVKGRFTISRDNAKNTVYLQMNSLKPEDTAVYYCASDVDRFFTYKYDYWGQGTQVTVSS”, the “polyreactivity (PSR sort gate)” value is reported as “low polyreactivity”.
In the case of “QVQLVESGGGLVQAGGSLRLSCAASGSTFVWYAMVWYRQAPGKEREFVATISWSDGSTYYADSVKGRFTISRDNAKNTVYLLMNSLKPEVTAVYYCASDVDRFFSYKYDYWGQGTQVTVSS”, the “polyreactivity (PSR sort gate)” value is reported as “low polyreactivity”.
In the case of “QVQLVESGGGLVQAGGSLRLSCAASGSTFVYNAMGSYRQAPGKEREFVAAISGSGGSTYYADSVKGRFTISRDNAKNTVYLQMNSLKPEDTAVYYCATAGRYGLYRTYPYRSKYDYWGQGTQVTVSS”, the “polyreactivity (PSR sort gate)” value is reported as “high polyreactivity”.
In the case of “QVQLVESGGGLVQAGGSLRLSCAASGSTFVYNAMGWYRPAPGKERELVAAISARTGRTYYADSVKGRFTISRDNAKNTVYLQMNSLKPEDTAVYYCAAGLIVGRFLRYDYWGQGTQVTVSS”, the “polyreactivity (PSR sort gate)” value is reported as “high polyreactivity”.
In the case of “QVQLVESGGGLVQAGGSLRLSCAASGSTFVYNAMGWYRQAPGKERELVAAISARTGRTYYADSVKGRFTISRDNAKNTVYLQMNSLKPEDTAVYYCARRYYTGYKNLPYGYWGQGTQVTVSS”, the “polyreactivity (PSR sort gate)” value is reported as “high polyreactivity”.
With “QVQLVESGGGLVQAGGSLRLSCAASGSTFVYNTMGWYTQAPGKERELVAGIDWSGGRTFYADSVKGRFTISRDNAKNTVYLQMNSLKPEDTAVYYCAKRLRVYRPWTYNYWGQGTQVTVSS” the “polyreactivity (PSR sort gate)” value was “high polyreactivity”.
In the case of “QVQLVESGGGLVQAGGSLRLSCAASGSTFVYNVMGWYRQAPGKERELVAAITSCVRTYYADSVKGRFTISRDNAKNTVYLQMNSLKPEDTAVYYCAARGYYSVVEYYYWGQGTQVTVSS”, the “polyreactivity (PSR sort gate)” value is reported as “high polyreactivity”.
With “QVQLVESGGGLVQAGGSLRLSCAASGSTFVYYAMGWYRQAPGKERELGAAITASGGGTYYADSVKGRFTISRDNAKNTVYLQMNSLKPEDTAVYYCNRGYDYWGQGTQVTVSS” the “polyreactivity (PSR sort gate)” value was “low polyreactivity”.
In the case of “QVQLVESGGGLVQAGGSLRLSCAASGSTFVYYAMGWYRQAPGKERELVADISWSGGDTYYADSVKGRFTISRDNAKNTVYFQMNSLKPEDTAVYYCAAEWSTPSYVGFADGFEYWGQGTQVTVSS”, the “polyreactivity (PSR sort gate)” value is reported as “low polyreactivity”.
With “QVQLVESGGGLVQAGGSLRLSCAASGSTFVYYGMGWYRQAPGKERELVAAITDIGDSTNYADSVKGRFTISRDNAKNTVYLQMNSLKPEDTAVYYCAASGRSVPYYGSPRNDYWGQGTQVTVSS” the “polyreactivity (PSR sort gate)” value was “low polyreactivity”.
In the case of “QVQLVESGGGLVQAGGSLRLSCAASGSTFWANAMGWYRQAPGKERELVAAITSTGITYYADSVKGRFTISRDNAKNTVYLQMNSLKPEDTAVYYCAADGYRYSVYLIRNPMDYWGQGTQVTVSS”, the “polyreactivity (PSR sort gate)” value is reported as “low polyreactivity”.
In the case of “QVQLVESGGGLVQAGGSLRLSCAASGSTFWAYAMGWYRQAPGKERELVAAITTGGGRTFYADSVKGRFTISRDNAKNTVYLQMNSLKPEDTAVYYCAAVSQSYRMYYWGEGTQVTVSS”, the “polyreactivity (PSR sort gate)” value is reported as “low polyreactivity”.
With “QVQLVESGGGLVQAGGSLRLSCAASGSTFWAYVMGWYRQAPGKERELVAAISKSGVRTHYADSVKGRFTISRDNAKNTVYLQMNSLKPEDTAVYYCAAGGVGNLDDYWGQVTQVTVSS” the “polyreactivity (PSR sort gate)” value was “high polyreactivity”.
For “QVQLVESGGGLVQAGGSLRLSCAASGSTFWFNAMGWYRQAPGKERELVAISGSVGSTYADSVKGRFTISRDNAKNTVYLQMNSLKPEDTAVYYCNADSVWYRNPWSFSPRYNYWGQGTQVTVSS”, the “polyreactivity (PSR sort gate)” value was “low polyreactivity”.
For “QVQLVESGGGLVQAGGSLRLSCAASGSTFWFYAMGWYRQAPGKERELVAAISSSGTNTYYADSVKGRFTISRDNAKNTVYLQMNSLKPEDTAVCYCAAQYRGSYRTTYDYWGQCTQVTVSS”, the “polyreactivity (PSR sort gate)” value was “low polyreactivity”.
With “QVQLVESGGGLVQAGGSLRLSCAASGSTFWGNAMGWYRQAPGKERELVAAISTSDTSTYYADSVKGRFTISRDNAKNTVYLQMNSLKPEDTAVYYCAAEWYYGEKYDYWVQGTQVTVSS” the “polyreactivity (PSR sort gate)” value was “low polyreactivity”.
